The nature of this data set: label from the status in PepcDB records.
As for “MKSKTIRRWSFIHTWTSLICTVFLLMLALTGLPLIFHHEIDHLLGDSPELREMPADTPHLDLQQLVKAAEAHRPGEVMQYFGWDEDEPNGVMTIMARTAGTEPNASHTFMLDARTGEAVAMPSANGGLMMVMLRLHVDMFAGLPGKLLLAFMGILFVLAIISGTVLYLPFMRRLKFATVRQDKSSRLRWLDLHNLIGVVTLTWALVVGVTGVISACADLIIAAWRNDSLSAMVAPYRDAPPLTSLAPASRLLDIAREAAPGMQPDFIAFPGTRFSSEHHYAVFLKGSSHLTSHLLTPVLIDASSLQVTAVAGRPWYMDAMGMSQPLHFGDYGGMPMKVLWAAMDMLTIIVLGSGLYLWLARRRAGKSMPQVRP”, the protein production result is “failed”.
The value for “MKSLGRHLVAEFYECDREVLDNVQLIEQEMKQAAYESGATIVTSTFHRFLPYGVSGVVVISESHLTIHTWPEYGYAAIDLFTCGEDVDPWKAFEHLKKALKAKRVHVVEHERGRYDEIGIPEDSPHKAAV” was “not failed”; that for “MKSLIIGANGGVGQHLVRKLKARDVDFTAGVRKEEQVEALKADGIDATYIDVAKQSIDELIELFKSYDQILFSVGSGGSTGDDQTIIVDLDGAVKAIKASEQIDHQHFIMVSTYDSRREAFDASGDLKPYTIAKHYADDYLRHANLKYTIVHPGALTNEHETQQFNMSAQFENVQNPSITREDVAEVLVSVLTDEVLQGHEFQIINGDLSLLDATTKYLEE” was “failed”; that for “MKSLQIYLFLFLSVFALGACIQNDIPYPYIKGEITAFEVEGQTGDAEINKNSRTIVVEVGDEVDIEELRITRFVVNEEATYSIDEQYCVSPNKFPSAGFSALADLPAGADTRVDFSKTVPVLLRTYQDYQWMITVKQTIERVVEVENQALPAIIDDKNHTVLVYVSQKQDLSAVKITKMILGGSKATITPDPSTVTNFRRPQEFVVNRFDKEELWTVDVVRTTSTGTTGSADVWATRATLNGGMKQGTTPRVEYRKKSEDTWTVVPETDVKLESGTTFSTTLTGLQDGTDYVWRVVVEEVPSTESGFTTEKIQEIPNLNFDTWSQNPTGTFKKSWYPNADGSNSFWATGNDGVTSSLAGSRDSSTRPEEKSVVNGKAAYMVTLGSVPLVGVAAGNLFIGDYKTNAQSPLEHHHHHH” was “failed”.
Regarding “MKSQISWKVGGQQGEGIESTGEIFATAMNRKGYFLYGYRHFSSRIKGGHTNNKIRVSKSPVHAISDDLDILIAFDQETIELNHHEMREDSIIIADSKAKPQKPENCVAQLIELPFTSTAKELGTALMKNMVAIGATSALMDLNTSTFETLIDNMFSKKGNKVVDMNIQALNMGYDLMKQQVTNVNGDFTLENGSGHPHLYMIGNDAIGLGAIAAGSRFMSAYPITPASEIMEYMIANLPKVDGTVVQTEDEIAAATMAIGANYAGVRGFTASAGPGLSLMMESIGLSGMTETPLVIINTQRGGPSTGLPTKQEQSDLMQMIYGTHGDIPKIVVAPTDAEDAFYLTMEAFNLAEEYQCPVILLSDLQLSLGKQTVKTLDYNKIDIRRGEIIQSDIERAEDDKAYFKRYALTASGVSPRPIPGVKGGIHHVTGVEHNEEGKPSEAPMNRQNQMEKRMRKTESLVINNPVLLNEHEDEADILYIGFISTKGAIGEGAERLERHGVKVNTMHIRQLHPFPKDIVQQAINKASKVIVAEHNYQGQLSSILKMNTQVNDKLVNQTKYDGKPFLPYEIEEKGLEIAKELKELV”, the protein production entry is given as “failed”.
As to “MKSRREQSIEEAIVANYLKMMIDNVNVWPRHFLRSEDVYCKNPWTLFVTRDPIILHFGRYFFVNRSVNSGLTDGCEYGCWRIIGRDRVIKSVTTGKILGLKKVYKFCETDRKPKSVFKFLEKEKRRVRDRRIWAMEEYRFASTWKQDYVICKIRRLYPQPFDYMLAQHIRGYYK”, the protein production result was “failed”.

For the origin of these results see a protein production outcome set (Wang et al. 2014).
